The source of these data is patent US20030219839A1 (published 2003).

Assay [1] deals with T1, recombinant human platelet derived growth factor (PDGF-BB) (human, UniProt P01127 82-190).
T1 construct: also called human PDGF-BB; PDGF-BB cytokine
Briefly: competition ELISA: antibody pre-incubated with 10 ng/ml PDGF-BB, then added to a plate coated with PDGF receptor beta/Fc; receptor-bound PDGF-BB detected by biotinylated anti-PDGF-BB antibody and streptavidin-alkaline phosphatase, OD405; blocked partner: PDGF receptor beta/Fc. The method, then: The ability of the rabbit scFvs to compete with the PDGF-1 receptor for binding to the PDGF-BB cytokine was determined in a competition assay. Binding of the scFvs to their target epitope on the PDGF-BB cytokine prevents PDGF-BB binding to the PDGF receptor coated on the plates. High protein binding 96-well plates were coated with 10 ng/well of recombinant human PDGF receptor beta/Fc chimera (R&D Systems, MN) in PBS overnight at 4° C. The plates were blocked with 5% sucrose/1% BSA/PBS for 1 h at 37° C. Serial dilutions of purified anti-PDGF-BB antibody were incubated with 10 ng/ml of recombinant human PDGF-BB at room temperature for 30 minutes before being added to the blocked and washed plates. After 2 h at room temperature, the plates were washed with PBS/0.05% Tween followed by another 2-hour incubation with biotinylated anti-PDGF-BB antibody (R&D Systems, MN) at room temperature. Next, streptavidin-alkaline phosphatase (Pierce, Rockford, Ill.) was added to the plates and incubated for 30 minutes at room temperature. The plates were washed 3×with PBS/0.05% Tween and 3× with PBS. Sigma 104 substrate suspended in PNPP buffer was added after the final wash step and the signal at OD405 was determined. […] F3 was then selected for humanization.
On the technique in general: An ELISA detects its analyte on a solid surface through an enzyme-linked reagent.

A further assay concerns the target rat PDGF BB (rat, UniProt Q05028 74-182). Briefly: solid phase ELISA: plate coated with the named form of PDGF, serial dilutions of mouse C1 Fab (axis in dilutions 1/x, no mass unit), OD.
Assay [2] deals with T1, recombinant human platelet derived …. As to the kind of experiment: BIAcore SPR, cytokine immobilised via primary amines, antibody as analyte. The method, then:
BIAcore analysis of the original and humanized anti-PDGF clones was performed according to standard procedures. The cytokine was immobilized on the BIAchip by chemical linking via primary amines and the binding behavior of the antibodies was analyzed over 30 min.
In general terms: Surface plasmon resonance follows binding to a sensor surface in real time, without labels.

T1 sequence (P01127 82-190): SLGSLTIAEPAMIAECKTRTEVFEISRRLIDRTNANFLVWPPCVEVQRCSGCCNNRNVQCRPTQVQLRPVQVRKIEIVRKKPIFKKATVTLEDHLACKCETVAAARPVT
Chain of rat PDGF BB (Q05028 74-182): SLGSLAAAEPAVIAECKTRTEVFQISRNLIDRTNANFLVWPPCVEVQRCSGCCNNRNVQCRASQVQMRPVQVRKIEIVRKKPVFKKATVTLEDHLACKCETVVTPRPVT

B1: C1 mouse anti-PDGF Fab (Fab, V domains shown)
VH: QVLLEQSGSELVRPGASVKLSCKASGYTFTSTWMNWVKKRPDQGLEWIGRIDPYDSETHYNQKFKDKAILTVDKSSSTAYMQLSRLTSEDSAVYYCARGGHMITPAMDYWGQGTSVTVSS
VL: VQVLTQSPAIMSASPGEKVTITCTASSSVSYMHWFQQKPGTSPKLLIYSASNLASGVPARFSGSGSGTSYSLTISRMEAEDAATYYCQQRSSYPWTFGGGTKLEIKR
notes: Mouse light chain and heavy chain Fd cloned in phagemid pRL4; purified over a Ni column; detected by an HA tag; also called mouse C1; murine antibody C1
Consider B1, for which the “IC50 (read off the curve)” value in assay [1] is around 0.4 µg/mL. Moreover, the binding result in the assay with rat PDGF BB is given as “no binding”. Further, in assay [2], the Ka is 2.31e+09 M⁻¹, the Kd was 433 pM, the off-rate constant (koff) came to 4.62e-05 s⁻¹ and the kon came out at 107000 M⁻¹ s⁻¹.

Usually Kd stands for the concentration at which binding is half-saturated. The koff is the rate constant with which the complex falls apart. A word on the kon: it is the second-order rate constant of association.
